Tests used:
[1] = target: EYFP-CD74minRTS (pEYFP-C1-CD74minRTS) (human) (UniProt P04233); test: FRET or BRET; FLIM-FRET (TCSPC, two-photon microscope, FALCON) in fixed Huh-7 cells co-transfected with ECFP-CXCR4 (donor) and EYFP-CD74 (acceptor); donor-alone lifetime 2.52 ns used; also with MIF-2 stimulation before fixation (FRET efficiency increased)
[2] = target: EYFP-CD74minRTS (pEYFP-C1-CD74minRTS) (human) (UniProt P04233); test: FRET or BRET; FLIM-FRET (TCSPC, two-photon microscope, FALCON) in fixed HEK293 cells co-transfected with ECFP-CXCR4 (donor) and EYFP-CD74 (acceptor)
[3] = target: EYFP-CD74minRTS (pEYFP-C1-CD74minRTS) (human) (UniProt P04233); test: FRET or BRET; FLIM-FRET in live HEK293 cells co-transfected with ECFP-CXCR4 and EYFP-CD74, monitored at one-minute intervals during exposure to MIF-2 (4 nM, 10 min, 37 °C); MIF (8 nM) as comparison reduced the lifetime to a lesser extent

Sequence of UniProt P04233 (P04233 whole entry): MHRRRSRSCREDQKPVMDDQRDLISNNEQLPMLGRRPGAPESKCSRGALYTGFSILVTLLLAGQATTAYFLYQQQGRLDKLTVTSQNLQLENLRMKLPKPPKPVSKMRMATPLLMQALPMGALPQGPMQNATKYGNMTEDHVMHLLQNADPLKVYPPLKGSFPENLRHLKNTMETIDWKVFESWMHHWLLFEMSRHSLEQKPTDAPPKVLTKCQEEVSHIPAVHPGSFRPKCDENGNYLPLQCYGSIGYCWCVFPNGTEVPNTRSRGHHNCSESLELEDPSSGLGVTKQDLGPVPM

Question: How did the FRET efficiency [1] turn out when “ECFP-tagged CXCR4 (pECFP-N1-CXCR4) (from UniProt P61073 1-352) (receptor)” was run?
Answer: 17 to 20%

Question: And the FRET efficiency [2]?
Answer: 50%

Question: And the fluorescence lifetime of the donor ECFP-CXCR4 with the acceptor, after MIF-2 stimulation [3]?
Answer: 2 ns
